No end group written: not given here.

Experiment [1] concerns the target T1, GST-fused P4HA1 protein (whole region of P4HA1) (human, UniProt P13674 18-534).
T1 construct: Made in E. coli; also called GST-P4HA1; GST-fused P4HA1 protein beads; not shown: GST (glutathione S-transferase) fusion partner of vector pGEX 4T-1
As to the kind of experiment: HTRF competition: 60 ng MBP-synoviolin-His and 10 ng GST-P4HA1, XL665-labeled anti-His and Eu(K)-labeled anti-GST antibodies. Here is the method:
A standard reaction mixture comprising 60 ng MBP-synoviolin-His, 10 ng GST-P4HA1, 1 mM DTT, 1 mM EDTA, 50 mM NaCl, 0.1% BSA, 0.3% DMSO, and a test compound in 15 μL of 50 mM HEPES (pH 7.5) solution was prepared using a 384-well plate. The reaction was initiated by adding 5 μL of a 50 mM HEPES solution comprising GST-P4HA1. After a 30 minute reaction at room temperature, 5 μL of a 50 mM HEPES solution comprising an Eu(K)-labeled anti-GST antibody (20000 B counts, CIS bio international), a XL665-labeled anti-His antibody (0.025 μg, CIS bio international), and 1 M K was added. The mixture was left to stand overnight at room temperature, and the fluorescence was measured using RUBYstar™.
On the technique in general: TR-FRET usually uses a lanthanide donor and a delayed reading to cut background.

For the next experiment, the target named is T2, GST protein (UniProt P08515 1-218 = GST).
T2 construct: Control in the pulldown; also called control GST protein
In words: GST pulldown, SDS-PAGE and autoradiography. Here is the method:
A [³⁵S]-labeled Flag-P4HA1 fused protein was prepared using the TNT-coupled Translation System (Promega Corporation) and pcDNA3-Flag-P4HA1. The fused protein was added, together with GST-Syno dTM, GST-Syno RING and GST protein, to a binding buffer containing 20 mM HEPES (pH 7.9), 100 mM NaCl, 1 mM EDTA, 0.05% Tween, 5% glycerol, 1 mM DTT, 0.2 mM NaVO₄, 5 mM NaF, and 1 mM PMSF and reacted at 4° C. for 16 hours. The resulting reaction product was developed over SDS-PAGE and its radioactivity was detected with an image analyzer (BAS2000, Fujix). The binding of GST-Syno dTM and GST-Syno RING fusion protein with [³⁵S]-labeled pcDNA3-Flag-P4HA1 was observed. In contrast, no binding was found between the control GST protein and pcDNA3-Flag-P4HA1 (FIG. 2).

T2 sequence (P08515 whole entry): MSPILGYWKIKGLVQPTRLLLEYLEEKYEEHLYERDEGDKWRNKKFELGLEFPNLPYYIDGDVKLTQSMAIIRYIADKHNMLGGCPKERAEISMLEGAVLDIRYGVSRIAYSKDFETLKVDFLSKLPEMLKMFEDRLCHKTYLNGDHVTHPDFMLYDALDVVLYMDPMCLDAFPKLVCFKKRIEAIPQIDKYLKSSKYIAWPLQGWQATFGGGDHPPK

B1: partial peptide of the partially modified synoviolin (SEQ ID NO: 5) (peptide)
peptide: DNVCIICREEMVTGAKRLDCN
modifications: cysteine pairing not given here; also: partially modified, modification not given here
B1: the concentration for half-maximal inhibition (IC50) (commonly the midpoint of a concentration-inhibition curve) in experiment [1] amounted to 167 µg/mL.

B2: [35S]-labeled Flag-P4HA1 fused protein (enzyme)
chain: HPGFFTSIGQMTDLIHTEKDLVTSLKDYIKAEEDKLEQIKKWAEKLDRLTSTATKDPEGFVGHPVNAFKLMKRLNTEWSELENLVLKDMSDGFISNLTIQRQYFPNDEDQVGAAKALLRLQDTYNLDTDTISKGNLPGVKHKSFLTAEDCFELGKVAYTEADYYHTELWMEQALRQLDEGEISTIDKVSVLDYLSYAVYQQGDLDKALLLTKKLLELDPEHQRANGNLKYFEYIMAKEKDVNKSASDDQSDQKTTPKKKGVAVDYLPERQKYEMLCRGEGIKMTPRRQKKLFCRYHDGNRNPKFILAPAKQEDEWDKPRIIRFHDIISDAEIEIVKDLAKPRLSRATVHDPETGKLTTAQYRVSKSAWLSGYENPVVSRINMRIQDLTGLDVSTAEELQVANYGVGGQYEPHFDFARKDEPDAFKELGTGNRIATWLFYMSDVSAGGATVFPEVGASVWPKKGTAVFWYNLFASGEGDYSTRHAACPVLVGNKWVSNKWLHERGQEFRRPCTLSELE
modifications: 35S label from in vitro translation (the FIG. 2 legend prints 32P)
notes: Made with the TNT-coupled Translation System from pcDNA3-Flag-P4HA1; also called pcDNA3-Flag-P4HA1; [32P]-labeled Flag-P4HA1 fused protein; not shown: Flag tag
Regarding B2, the binding result with GST protein is reported as “no binding”.

The record behind these values is patent US20070134720A1 (published 2007).
